Test system: Escherichia coli TOP10
Experiment: shrunken log2 fold change of peptide-encoding DNA abundance (4.5 h post-induction vs induction); higher = less antimicrobial activity (less host growth inhibition)
Settings: time post-induction: 4.5 h; library: site-saturation at positions 5, 18, 19, 20
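Note: peptides expressed intracellularly from a pBAD plasmid library in pooled LB shake-flask culture, induced with 0.3% L-arabinose, DNA abundance read by NGS, three biological replicates, DESeq2 with apeglm shrinkage.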

Sequence	shrunken log2 fold change
RRIRLRPPRLPRPRPRPPKEPRP	0.00696
RRIRLRPPRLPRPRPRPPLCPRP	0.162
RRIRLRPPRLPRPRPRPPLDPRP	0.436
RRIRLRPPRLPRPRPRPPLIPRP	-0.258
RRIRLRPPRLPRPRPRPPLVPRP	0.402
RRIRLRPPRLPRPRPRPPMFPRP	-0.242
RRIRLRPPRLPRPRPRPPNHPRP	-0.246
RRIRLRPPRLPRPRPRPPNVPRP	0.0883
RRIRLRPPRLPRPRPRPPPFPRP	0.791
RRIRLRPPRLPRPRPRPPPNPRP	1.18
RRIRLRPPRLPRPRPRPPQVPRP	0.162
RRIRLRPPRLPRPRPRPPSSPRP	1.86
RRIRLRPPRLPRPRPRPPTGPRP	0.146
RRIRLRPPRLPRPRPRPPVGPRP	1.42
RRIRLRPPRLPRPRPRPPWHPRP	0.193
RRIRLRPPRLPRPRPRPPWKPRP	0.153
RRIRLRPPRLPRPRPRPPWVPRP	0.344
RRIRLRPPRLPRPRPRPQAMPRP	0.00366
RRIRLRPPRLPRPRPRPQDYPRP	-0.31
RRIRLRPPRLPRPRPRPQFTPRP	-0.324
RRIRLRPPRLPRPRPRPQFWPRP	0.099
RRIRLRPPRLPRPRPRPQGCPRP	0.0879
RRIRLRPPRLPRPRPRPQGGPRP	0.0226
RRIRLRPPRLPRPRPRPQGWPRP	0.495
RRIRLRPPRLPRPRPRPQIHPRP	-0.154

Sequence	shrunken log2 fold change
RRIRLRPPRLPRPRPRPQIIPRP	0.0457
RRIRLRPPRLPRPRPRPQKLPRP	-0.17
RRIRLRPPRLPRPRPRPQKNPRP	-0.154
RRIRLRPPRLPRPRPRPQKPPRP	-0.272
RRIRLRPPRLPRPRPRPQMDPRP	-0.16
RRIRLRPPRLPRPRPRPQNAPRP	0.223
RRIRLRPPRLPRPRPRPQNIPRP	-0.512
RRIRLRPPRLPRPRPRPQPEPRP	0.419
RRIRLRPPRLPRPRPRPQPLPRP	0.00386
RRIRLRPPRLPRPRPRPQQGPRP	-0.0774
RRIRLRPPRLPRPRPRPQRYPRP	-0.307
RRIRLRPPRLPRPRPRPQTQPRP	0.0159
RRIRLRPPRLPRPRPRPQWDPRP	-0.00172
RRIRLRPPRLPRPRPRPQYLPRP	-0.0559
RRIRLRPPRLPRPRPRPRCIPRP	-0.0325
RRIRLRPPRLPRPRPRPRCLPRP	0.18
RRIRLRPPRLPRPRPRPRDYPRP	-0.00546
RRIRLRPPRLPRPRPRPREAPRP	0.641
RRIRLRPPRLPRPRPRPREIPRP	0.0725
RRIRLRPPRLPRPRPRPRGDPRP	0.553
RRIRLRPPRLPRPRPRPRGLPRP	0.146
RRIRLRPPRLPRPRPRPRGTPRP	0.0155
RRIRLRPPRLPRPRPRPRHWPRP	0.679
RRIRLRPPRLPRPRPRPRIVPRP	-0.175
RRIRLRPPRLPRPRPRPRKCPRP	0.309

Sequence	shrunken log2 fold change
RRIRLRPPRLPRPRPRPRLHPRP	-0.237
RRIRLRPPRLPRPRPRPRMTPRP	0.206
RRIRLRPPRLPRPRPRPRNHPRP	-0.44
RRIRLRPPRLPRPRPRPRNYPRP	-0.0808
RRIRLRPPRLPRPRPRPRQHPRP	-0.0111
RRIRLRPPRLPRPRPRPRQIPRP	0.211
RRIRLRPPRLPRPRPRPRQPPRP	0.111
RRIRLRPPRLPRPRPRPRRHPRP	0.214
RRIRLRPPRLPRPRPRPRRLPRP	0.18
RRIRLRPPRLPRPRPRPRRSPRP	-0.169
RRIRLRPPRLPRPRPRPRVDPRP	-0.0238
RRIRLRPPRLPRPRPRPRVLPRP	-0.132
RRIRLRPPRLPRPRPRPRVTPRP	-0.243
RRIRLRPPRLPRPRPRPRWRPRP	0.463
RRIRLRPPRLPRPRPRPRWTPRP	0.404
RRIRLRPPRLPRPRPRPRYEPRP	-0.286
RRIRLRPPRLPRPRPRPRYGPRP	-0.0186
RRIRLRPPRLPRPRPRPSCHPRP	-0.475
RRIRLRPPRLPRPRPRPSCRPRP	-0.116
RRIRLRPPRLPRPRPRPSDCPRP	-0.336
RRIRLRPPRLPRPRPRPSDIPRP	-0.0623
RRIRLRPPRLPRPRPRPSDLPRP	-0.163
RRIRLRPPRLPRPRPRPSDSPRP	-0.498
RRIRLRPPRLPRPRPRPSFCPRP	-0.403
RRIRLRPPRLPRPRPRPSFKPRP	-0.572

Sequence	shrunken log2 fold change
RRIRLRPPRLPRPRPRPSFMPRP	-0.309
RRIRLRPPRLPRPRPRPSFWPRP	0.0795
RRIRLRPPRLPRPRPRPSGCPRP	0.345
RRIRLRPPRLPRPRPRPSIYPRP	-0.801
RRIRLRPPRLPRPRPRPSKDPRP	-0.364
RRIRLRPPRLPRPRPRPSLCPRP	-0.462
RRIRLRPPRLPRPRPRPSLFPRP	-0.373
RRIRLRPPRLPRPRPRPSMIPRP	-1.02
RRIRLRPPRLPRPRPRPSNIPRP	-0.103
RRIRLRPPRLPRPRPRPSNRPRP	-0.599
RRIRLRPPRLPRPRPRPSNTPRP	-0.624
RRIRLRPPRLPRPRPRPSPDPRP	0.164
RRIRLRPPRLPRPRPRPSPFPRP	-0.183
RRIRLRPPRLPRPRPRPSQFPRP	-0.12
RRIRLRPPRLPRPRPRPSRNPRP	-0.0105
RRIRLRPPRLPRPRPRPSRVPRP	0.00872
RRIRLRPPRLPRPRPRPSVPPRP	-0.185
RRIRLRPPRLPRPRPRPTACPRP	-0.0054
RRIRLRPPRLPRPRPRPTCEPRP	0.497
RRIRLRPPRLPRPRPRPTDHPRP	-0.323
RRIRLRPPRLPRPRPRPTENPRP	-0.171
RRIRLRPPRLPRPRPRPTEPPRP	0.0962
RRIRLRPPRLPRPRPRPTERPRP	-0.189
RRIRLRPPRLPRPRPRPTFFPRP	0.14
RRIRLRPPRLPRPRPRPTFPPRP	0.131

Sequence	shrunken log2 fold change
RRIRLRPPRLPRPRPRPTFVPRP	-0.162
RRIRLRPPRLPRPRPRPTGRPRP	0.105
RRIRLRPPRLPRPRPRPTHLPRP	-0.12
RRIRLRPPRLPRPRPRPTHPPRP	0.0349
RRIRLRPPRLPRPRPRPTKDPRP	-0.183
RRIRLRPPRLPRPRPRPTKLPRP	-0.0137
RRIRLRPPRLPRPRPRPTMIPRP	-0.164
RRIRLRPPRLPRPRPRPTMSPRP	-0.226
RRIRLRPPRLPRPRPRPTNTPRP	-0.375
RRIRLRPPRLPRPRPRPTQLPRP	0.221
RRIRLRPPRLPRPRPRPTQPPRP	0.634
RRIRLRPPRLPRPRPRPTSVPRP	-0.0387
RRIRLRPPRLPRPRPRPTTDPRP	-0.287
RRIRLRPPRLPRPRPRPTTPPRP	0.138
RRIRLRPPRLPRPRPRPTWFPRP	0.0207
RRIRLRPPRLPRPRPRPTYHPRP	-0.358
RRIRLRPPRLPRPRPRPTYQPRP	-0.229
RRIRLRPPRLPRPRPRPVAWPRP	0.225
RRIRLRPPRLPRPRPRPVDGPRP	0.0489
RRIRLRPPRLPRPRPRPVDHPRP	-0.0221
RRIRLRPPRLPRPRPRPVEMPRP	-0.0829
RRIRLRPPRLPRPRPRPVGGPRP	0.516
RRIRLRPPRLPRPRPRPVGYPRP	-0.0152
RRIRLRPPRLPRPRPRPVHDPRP	-0.458
RRIRLRPPRLPRPRPRPVIFPRP	-0.141

Sequence	shrunken log2 fold change
RRIRLRPPRLPRPRPRPVIWPRP	0.0724
RRIRLRPPRLPRPRPRPVKEPRP	0.0114
RRIRLRPPRLPRPRPRPVKFPRP	-0.316
RRIRLRPPRLPRPRPRPVKVPRP	-0.0103
RRIRLRPPRLPRPRPRPVLSPRP	-0.0937
RRIRLRPPRLPRPRPRPVMVPRP	-0.0863
RRIRLRPPRLPRPRPRPVNTPRP	-0.186
RRIRLRPPRLPRPRPRPVPAPRP	0.222
RRIRLRPPRLPRPRPRPVPSPRP	0.157
RRIRLRPPRLPRPRPRPVQYPRP	-0.0382
RRIRLRPPRLPRPRPRPVTCPRP	-0.125
RRIRLRPPRLPRPRPRPVTFPRP	-0.0737
RRIRLRPPRLPRPRPRPVTHPRP	-0.305
RRIRLRPPRLPRPRPRPVVQPRP	0.0325
RRIRLRPPRLPRPRPRPVVRPRP	0.148
RRIRLRPPRLPRPRPRPVWAPRP	0.424
RRIRLRPPRLPRPRPRPVYWPRP	-0.14
RRIRLRPPRLPRPRPRPWAWPRP	-0.0255
RRIRLRPPRLPRPRPRPWCAPRP	-0.0114
RRIRLRPPRLPRPRPRPWEKPRP	0.0916
RRIRLRPPRLPRPRPRPWEPPRP	0.0843
RRIRLRPPRLPRPRPRPWFFPRP	-0.155
RRIRLRPPRLPRPRPRPWGTPRP	-0.169
RRIRLRPPRLPRPRPRPWHAPRP	-0.194
RRIRLRPPRLPRPRPRPWIFPRP	-0.0453

From the supplement of paper PMC9112550, “Optimization of the antimicrobial peptide Bac7 by deep mutational scanning” (BMC Biology, 2022)
